In one test the target is T1, GST-BCL7A-YFP (Arabidopsis thaliana, UniProt F4JL58).
T1 chain: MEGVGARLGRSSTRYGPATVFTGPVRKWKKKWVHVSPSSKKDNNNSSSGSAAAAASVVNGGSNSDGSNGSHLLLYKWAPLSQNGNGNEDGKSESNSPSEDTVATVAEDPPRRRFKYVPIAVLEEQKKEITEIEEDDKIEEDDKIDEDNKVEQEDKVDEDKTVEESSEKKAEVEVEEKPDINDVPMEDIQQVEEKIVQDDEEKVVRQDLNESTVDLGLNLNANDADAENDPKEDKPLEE
As to the kind of experiment: GST pull-down.

Another test has as its target T2, GST-BCL7B-CFP (Arabidopsis thaliana, UniProt Q9FLP2).
T2 chain: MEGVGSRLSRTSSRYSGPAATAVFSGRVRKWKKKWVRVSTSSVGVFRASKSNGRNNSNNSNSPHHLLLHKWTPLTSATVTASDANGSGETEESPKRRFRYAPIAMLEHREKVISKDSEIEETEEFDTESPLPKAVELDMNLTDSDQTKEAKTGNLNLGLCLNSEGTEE
As to the kind of experiment: GST pull-down.

Results on one molecule are retold here after publication PMC10830565 (2024).

B1: MBP-BRM (422-952)-HIS (protein)
chain: MQQPRQLNTPTPNLVAPSDTGPLSNSSLQSGQGTQQAQQRSGFTKQQLHVLKAQILAFRRLKKGEGSLPPELLQAISPPPLELQTQRQISPAIGKVQDRSSDKTGEDQARSLECGKESQAAASSNGPIFSKEEDNVGDTEVALTTGHSQLFQNLGKEATSTDVATKEEQQTDVFPVKSDQGADSSTQKNPRSDSTADKGKAVASDGSQSKVPPQANSPQPPKDTASARKYYGPLFDFPFFTRKLDSYGSATANANNNLTLAYDIKDLICEEGAEFLSKKRTDSLKKINGLLAKNLERKRIRPDLVLRLQIEEKKLRLSDLQSRVREEVDRQQQEIMSMPDRPYRKFVRLCERQRLEMNRQVLANQKAVREKQLKTIFQWRKKLLEAHWAIRDARTARNRGVAKYHEKMLREFSKRKDDGRNKRMEALKNNDVERYREMLLEQQTNMPGDAAERYAVLSSFLTQTEDYLHKLGGKITATKNQQEVEEAANAAAVAARLQGLSEEEVRAAATCAREEVVIRNRFTEMNAPKEN
As to B1, the binding result with GST-BCL7A-YFP and in the test with GST-BCL7B-CFP was “binds” throughout.
